Test results published in patent US20200055934A1.
Read-outs that look alike come from different tables or passages of the source.

How the values were obtained:
Assay in all cases: cell-based or functional assay
[1] = target: Receptor for Advanced Glycation Endproducts (RAGE), human, full length (human) (UniProt Q15109)
[2] = target: Receptor for Advanced Glycation Endproducts (RAGE), human, full length (human) (UniProt Q15109); remark: listed apart in the source
[3] = target: Receptor for Advanced Glycation Endproducts (RAGE), human, full length (human) (UniProt Q15109); remark: listed apart in the source

Chain of UniProt Q15109 (Q15109 23-404 limits assumed): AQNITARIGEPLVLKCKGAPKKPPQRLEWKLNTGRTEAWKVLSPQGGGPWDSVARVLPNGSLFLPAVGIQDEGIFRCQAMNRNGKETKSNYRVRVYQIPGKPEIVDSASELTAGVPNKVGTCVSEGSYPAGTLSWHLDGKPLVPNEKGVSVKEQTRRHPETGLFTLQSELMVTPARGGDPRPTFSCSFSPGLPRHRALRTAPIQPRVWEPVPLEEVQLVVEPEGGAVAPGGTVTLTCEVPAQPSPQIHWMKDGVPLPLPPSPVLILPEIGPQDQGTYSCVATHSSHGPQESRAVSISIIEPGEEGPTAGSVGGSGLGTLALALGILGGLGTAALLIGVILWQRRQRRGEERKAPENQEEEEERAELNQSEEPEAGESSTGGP

Substance | IC50, cell viability, TOV112D ovarian cancer cells, 24 h [1] [µg/mL] | IC50, cell viability, HEC1A endometrial cancer cells, 24 h [2] [µg/mL] | IC50, cell viability, HEC1A endometrial cancer cells, 48 h [2] [µg/mL] | IC50, cell viability, HEC1A endometrial cancer cells, 96 h [2] [µg/mL] | IC50, cell viability, HEC1B endometrial cancer cells, 48 h [2] [µg/mL] | IC50, cell viability, HEC1B endometrial cancer cells, 96 h [2] [µg/mL] | IC50, cell viability, HEC50 endometrial cancer cells, 48 h [2] [µg/mL] | IC50, cell viability, HEC50 endometrial cancer cells, 96 h [2] [µg/mL] | IC50, cell viability, Ishikawa endometrial cancer cells, 24 h [2] [µg/mL] | IC50, cell viability, Ishikawa endometrial cancer cells, 48 h [2] [µg/mL] | IC50, cell viability, Ishikawa endometrial cancer cells, 96 h [2] [µg/mL] | IC50, cell viability, TOV112D ovarian cancer cells, 48 h [2] [µg/mL] | IC50, cell viability, TOV112D ovarian cancer cells, 96 h [2] [µg/mL] | IC50, cell viability, healthy endometrial cells, 48 h [2] [µg/mL] | IC50, cell viability, healthy endometrial cells, 96 h [2] [µg/mL] | IC50, cell viability, healthy ovarian cells, 96 h [2] [µg/mL] | also measured
SNIPER-MMAE (MAB11451 conjugated with vcMMAE) (antibody) | 16.7 | 10.3 | 4.69 | 1.02 | 8.65 | 5.67 | 7.64 | 2.18 | 31 | 9.54 | 3.86 | 16.2 | 0.54 | 10.7 | 15.2 | 41 | IC50, cell viability, HEC1B endometrial cancer cells, 24 h [2]: 29 µg/mL; IC50, cell viability, TOV112D ovarian cancer cells, 24 h [2]: 22.6 µg/mL
SNIPER-MMAF (MAB11451 conjugated with mcMMAF) (antibody) | 2.5 | 24.1 | 0.81 | 0.74 | 1.96 | 1.27 | 0.86 | 0.94 | 16.7 | 6.48 | 2.42 | 2.51 | 0.59 | 7.25 | 4.17 | 4.87 | IC50, cell viability, HEC50 endometrial cancer cells, 24 h [2]: 17.8 µg/mL; IC50, cell viability, healthy ovarian cells, 48 h [2]: 14.4 µg/mL; IC50, cell viability, Ishikawa endometrial cancer cells, 24 h [3]: 16.7 µg/mL
